The text below walks through data of paper PMC11494953 (2024).

This assay addresses EV-A71 2C protein (analyte of the SPR assay) (Enterovirus A71 (strain ), UniProt Q66478 1112-1440). The assay can be described thus: SPR. A general note: In SPR one partner is held on a chip, and binding of the other changes the refractive index at the surface.

B1: UBE3C protein (TP315110, ORIGENE) (enzyme)
chain: MFSFEGDFKTRPKVSLGGASRKEEKASLLHRTQEERRKREEERRRLKNAIIIQSFIRGYRDRKQQYSIQRSAFDRCATLSQSGGAFPIANGPNLTLLVRQLLFFYKQNEDSKRLIWLYQNLIKHSSLFVKQLDGSERLTCLFQIKRLMSLCCRLLQNCNDDSLNVALPMRMLEVFSSENTYLPVLQDASYVVSVIEQILHYMIHNGYYRSLYLLINSKLPSSIEYSDLSRVPIAKILLENVLKPLHFTYNSCPEGARQQVFTAFTEEFLAAPFTDQIFHFIIPALADAQTVFPYEPFLNALLLIESRCSRKSGGAPWLFYFVLTVGENYLGALSEEGLLVYLRVLQTFLSQLPVSPASASCHDSASDSEEESEEADKPSSPEDGRLSVSYITEECLKKLDTKQQTNTLLNLVWRDSASEEVFTTMASVCHTLMVQHRMMVPKVRLLYSLAFNARFLRHLWFLISSMSTRMITGSMVPLLQVISRGSPMSFEDSSRIIPLFYLFSSLFSHSLISIHDNEFFGDPIEVVGQRQSSMMPFTLEELIMLSRCLRDACLGIIKLAYPETKPEVREEYITAFQSIGVTTSSEMQQCIQMEQKRWIQLFKVITNLVKMLKSRDTRRNFCPPNHWLSEQEDIKADKVTQLYVPASRHVWRFRRMGRIGPLQSTLDVGLESPPLSVSEERQLAVLTELPFVVPFEERVKIFQRLIYADKQEVQGDGPFLDGINVTIRRNYIYEDAYDKLSPENEPDLKKRIRVHLLNAHGLDEAGIDGGGIFREFLNELLKSGFNPNQGFFKTTNEGLLYPNPAAQMLVGDSFARHYYFLGRMLGKALYENMLVELPFAGFFLSKLLGTSADVDIHHLASLDPEVYKNLLFLKSYEDDVEELGLNFTVVNNDLGEAQVVELKFGGKDIPVTSANRIAYIHLVADYRLNRQIRQHCLAFRQGLANVVSLEWLRMFDQQEIQVLISGAQVPISLEDLKSFTNYSGGYSADHPVIKVFWRVVEGFTDEEKRKLLKFVTSCSRPPLLGFKELYPAFCIHNGGSDLERLPTASTCMNLLKLPEFYDETLLRSKLLYAIECAAGFELS
For the molecule B1, binding was put at a Kd of 72.1 µM. That is a double-digit micromolar value.
